The target of data set [1] is Fur in the bacterial two-hybrid plasmid pUT18C-fur (Escherichia coli) (UniProt P0A9A9). The data set can be described thus: two-hybrid; bacterial two-hybrid by reconstitution of adenylate cyclase (T18/T25) in E. coli BTH101; LB-X-Gal plates and β-galactosidase assay (Miller method).
The next data set addresses T1, Zn1Fur (Escherichia coli, UniProt P0A9A9 1-148).
T1 sequence: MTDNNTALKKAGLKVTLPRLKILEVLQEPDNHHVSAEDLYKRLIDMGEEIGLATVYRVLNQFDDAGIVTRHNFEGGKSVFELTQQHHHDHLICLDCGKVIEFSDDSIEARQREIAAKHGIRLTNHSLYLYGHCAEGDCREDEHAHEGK
The data set can be described thus: FP; EDTA-treated Fur, no Mn2+ added; EMSA: 10 mM Tris-HCl pH 7.5, 1 mM MgCl2, 40 mM KCl, 0.1 mg/ml BSA, 5% glycerol, +/-100 uM MnCl2, 25 nM DNA, 37 C 15 min; FP: 10 mM Tris-HCl pH 7.5, 75 mM NaCl. The conditions noted are these: protein: recombinant; tags: N-terminal His (PreScission-cleavable, removed if necessary); chain copies: 2; label: FAM; blunt. For orientation: A gel shift assay detects complexes by their altered migration in electrophoresis.

The target in the next data set is T2, Fur P18ASlyD (Escherichia coli, UniProt P0A9A9 1-148, P18A).
T2 sequence: T1 sequence with P18A
The data set can be described thus: EMSA; 100 uM MnCl2; 30 uM protein; EMSA: 10 mM Tris-HCl pH 7.5, 1 mM MgCl2, 40 mM KCl, 0.1 mg/ml BSA, 5% glycerol, +/-100 uM MnCl2, 25 nM DNA, 37 C 15 min; FP: 10 mM Tris-HCl pH 7.5, 75 mM NaCl. The conditions noted are these: protein: recombinant; tags: N-terminal His (PreScission-cleavable, removed if necessary); chain copies: 2; label: FAM; blunt.

For another data set, the target named is T3, Fur P18A (Escherichia coli, UniProt P0A9A9 1-148, P18A).
T3 sequence: T1 sequence with P18A
Described as above. The conditions noted are these: protein: recombinant; tags: N-terminal His (PreScission-cleavable, removed if necessary); chain copies: 2; label: FAM; blunt.

A further data set addresses T4, Fur P18AYdiV (Escherichia coli, UniProt P0A9A9 1-148, P18A).
T4 sequence: T1 sequence with P18A
The description is as above. The conditions noted are these: protein: recombinant; tags: N-terminal His (PreScission-cleavable, removed if necessary); chain copies: 2; label: FAM; blunt.

In the next data set the target is T5, Fur P29A (Escherichia coli, UniProt P0A9A9 1-148, P29A).
T5 sequence: T1 sequence with P29A
The data set is described as above. The conditions noted are these: protein: recombinant; tags: N-terminal His (PreScission-cleavable, removed if necessary); chain copies: 2; label: FAM; blunt.

Data set [2] deals with the molecule itself. The data set can be described thus: SEC; Superdex 200, 10 mM Tris-HCl pH 8.0, 100 mM NaCl, proteins at 100-200 uM, 4°C; 62 kDa and 27 kDa proteins as markers.

Numbering of substitutions follows the chain as printed.

5 molecules from publication PMC7515728, “YdiV regulates Escherichia coli ferric uptake by manipulating the DNA-binding ability of Fur in a SlyD-dependent manner” (Nucleic Acids Research, 2020) can be followed below.

In data set [1], “SlyD in the bacterial two-hybrid plasmid pKNT25-slyD (from UniProt P0A9K9 1-196) (natural protein)” gave an interaction strength relative to the negative control (β-galactosidase) (times the negative control) of 6.

“YdiV in the bacterial two-hybrid plasmid pKNT25-ydiV (from UniProt P76204 1-237) (natural protein)” displayed an interaction strength relative to the negative control (β-galactosidase) (times the negative control) in data set [1] of 3.

B1: Fur box DNA (dsDNA)
DNA 1: GATAATGATAATGATAATGATAATGATAATGA
DNA 2: TCATTATCATTATCATTATCATTATCATTATC
By Kd is commonly meant a measure of binding affinity in units of concentration. Regarding B1, the Kd with Zn1Fur came out at 7.2 µM. Besides, the binding result in the data set with Fur P18ASlyD, in the data set with Fur P18A, with Fur P18AYdiV and with Fur P29A was “binds” each time.

B2: native Fur protein (ferric uptake regulator, overexpressed without YdiV) (natural protein, Escherichia coli, UniProt P0A9A9 1-148, looked up)
chain: T1 sequence
notes: Ferric uptake regulator Fur, Escherichia coli, from plasmid pGL01fur; In the pull-down for mass spectrometry Fur was held on Ni-NTA by its N-terminal His-tag and then released by PreScission cleavage; printed mass 17 089 Da per monomer; also called Zn1Fe1Fur; source: E. coli BL21 harboring pGL01fur; in lysate on Ni-NTA (pull-down) and purified (Ni-NTA, Superdex 200); not shown: His-tag, …
A word on the stoichiometry N: it is a count of units in the complex or per binding partner. With B2, the “stoichiometry N” value in data set [2] is 2.

B3: Fur^YdiV protein (Fur co-expressed with untagged YdiV) (natural protein, Escherichia coli, UniProt P0A9A9 1-148, looked up)
chain: T1 sequence
notes: Ferric uptake regulator Fur, Escherichia coli, from plasmid pGL01fur, co-expressed with YdiV; also called Zn1Fe1Fur^YdiV; source: E. coli BL21 harboring pGL01fur and pACYCydiV; in lysate on Ni-NTA (pull-down) and purified (Ni-NTA, Superdex 200); not shown: His-tag, N-terminal, kept
In the case of B3, the “stoichiometry N” value in data set [2] was determined as 2.
